Test results published in patent publication US6150515, “Tat-SF: cofactor for stimulation of transcriptional elongation by HIV-1 Tat” (Massachusetts Institute of Technology, dated 2000).

Biological target: HIV-1 Tat, recombinant wild type Tat protein (HIV-1, UniProt P04608)
Test: cell-based or functional assay

B1: Tat-Stimulatory Factor protein Tat-SF1 (pp140) (other)
chain: MSGTNLDGNDEFDEQLRMQELYGDGKDGDTQTDAGGEPDSLGQQPTDTPYEWDLDKKAWFPKITEDFIATYQANYGFSNDGASSSTANVEDVHARTAEEPPQEKAPEPTDARKKGEKRKAESGWFHVEEDRNTNVYVSGLPPDITVDEFIQLMSKFGIIMRDPQTEEFKVKLYKDNQGNLKGDGLCCYLKRESVELALKLLDEDEIRGYKLHVEVAKFQLKGEYDASKKKKKCKDYKKKLSMQQKQLDWRPERRAGPSRMRHERVVIIKNMFHPMDFEDDPLVLNEIREDLRVECSKFGQIRKLLLFDRHPDGVASVSFRDPEEADYCIQTLDGRWFGGRQITAQAWDGTTDYQVEETSREREERLRGWEAFLNAPEANRGLSVQILSLLRKAGPSRARHFSEHPSTSKMNAQETATGMAFEEPIDEKKFEKTEDGGEFEEGASENNAKESSPEKEAEEGCPEKESEEGCPKRGFEGSCSQKESEEGNPVRGSEEDSPKKESKKKTLKNDCEENGLAKESEDDLNKESEEEVGPTKESEEDDSEKESDEDCSEKQSEDGSEREFEENGLEKDLDEEGSEKELHENVLDKELEENDSENSEFEDDGSEKVLDEEGSEREFDEDSDEKEEEEDTYEKVFDDESDEKEDEEYADEKGLEAADKKAEEGDADEKLFEESDDKEDEDADGKEVEDADEKLFEDDDSNEKLFDEEEDSSEKLFDDSDERGTLGGFGSVEEGPLSTGSSFILSSDDDDDDI
modifications: phosphorylated by its associated kinase in the kinase reactions (gamma-32P ATP); sites not stated
**Q.** With B1 as the binder, how does the “fold activation by Tat of an HIV-1 LTR-CAT reporter (pBennCAT) in HeLa cells co-transfected with pSV-Tat-SF1, relative to empty vector” value read?
**A.** The value was 5.2 fold.
